Target: 3H-acetylated histone H4 peptide ([3H]-Ac(H41-24))

Row | Protein | in vitro histone deacetylase assay (release of 3H-acetate from the peptide by immunoprecipitated enzyme)
1 | C-terminally flag epitope-tagged HDAC3 (protein) MAKTVAYFYDPDVGNFHYGAGHPMKPHRLALTHSLVLHYGLYKKMIVFKPYQASQHDMCRFHSEDYIDFLQRVSPTNMQGFTKSLNAFNVGDDCPVFPGLFEFCSRYTGASLQGATQLNNKICDIAINWAGGLHHAKKFEASGFCYVNDIVIGILELLKYHPRVLYIDIDIHHGDGVQEAFYLTDRVMTVSFHKYGNYFFPGTGDMYEVGAESGRYYCLNVPLRDGIDDQSYKHLFQPVINQVVDFYQPTCIVLQCGADSLGCDRLGCFNLSIRGHGECVEYVKSFNIPLLVLGGGGYTVRNVARCWTYETSLLVEEAISEELPYSEYFEYFAPDFTLHPDVSTRIENQNSRQYLDQIRQTIFENLKMLNHAPSVQIHDVPADLLTYDRTDEADAEERGPEENYSRPEAPNEFYDGDHDNDKESDVEI | HDAC9 could deacetylate the histone peptide substrate at a level that was equivalent to UDAC3 and HDAC4
2 | C-terminally flag epitope-tagged HDAC4 (protein) MSSQSHPDGLSGRDQPVELLNPARVNHMPSTVDVATALPLQVAPSAVPMDLRLDHQFSLPVAEPALREQQLQQELLALKQKQQIQRQILIAEFQRQHEQLSRQHEAQLHEHIKQQQEMLAMKHQQELLEHQRKLERHRQEQELEKQHREQKLQQLKNKEKGKESAVASTEVKMKLQEFVLNKKKALAHRNLNHCISSDPRYWYGKTQHSSLDQSSPPQSGVSTSYNHPVLGMYDAKDDFPLRKTASEPNLKLRSRLKQKVAERRSSPLLRRKDGPVVTALKKRPLDVTDSACSSAPGSGPSSPNNSSGSVSAENGIAPAVPSIPAETSLAHRLVAREGSAAPLPLYTSPSLPNITLGLPATGPSAGTAGQQDAERLTLPALQQRLSLFPGTHLTPYLSTSPLERDGGAAHSPLLQHMVLLEQPPAQAPLVTGLGALPLHAQSLVGADRVSPSIHKLRQHRPLGRTQSAPLPQNAQALQHLVIQQQHQQFLEKHKQQFQQQQLQMNKIIPKPSEPARQPESHPEETEEELREHQALLDEPYLDRLPGQKEAHAQAGVQVKQEPIESDEEEAEPPREVEPGQRQPSEQELLFRQQALLLEQQRIHQLRNYQASMEAAGIPVSFGGHRPLSRAQSSPASATFPVSVQEPPTKPRFTTGLVYDTLMLKHQCTCGSSSSHPEHAGRIQSIWSRLQETGLRGKCECIRGRKATLEELQTVHSEAHTLLYGTNPLNRQKLDSKKLLGSLASVFVRLPCGGVGVDSDTIWNEVHSAGAARLAVGCVVELVFKVATGELKNGFAVVRPPGHHAEESTPMGFCYFNSVAVAAKLLQQRLSVSKILIVDWDVHHGNGTQQAFYSDPSVLYMSLHRYDDGNFFPGSGAPDEVGTGPGVGFNVNMAFTGGLDPPMGDAEYLAAFRTVVMPIASEFAPDVVLVSSGFDAVEGHPTPLGGYNLSARCFGYLTKQLMGLAGGRIVLALEGGHDLTAICDASEACVSALLGNELDPLPEKVLQQRPNANAVRSMEKVMEIHSKYWRCLQRTTSTAGRSLIEAQTCENEEAETVTAMASLSVGVKPAEKRPDEEPMEEEPPL | HDAC9 could deacetylate the histone peptide substrate at a level that was equivalent to UDAC3 and HDAC4
